{"source": "paper PMC9405973", "about": "“Altered Conformational Landscape upon Sensing Guanine Nucleotides in a Disease Mutant of Elongation Factor-like 1 (EFL1) GTPase” (Biomolecules, 2022)", "molecules": {"B1": {"name": "Efl1 wild type (Saccharomyces cerevisiae S288C) (protein)", "chain": "MPRVESETYKRLQNDPSCIRNICIVAHVDHGKTSLSDSLLASNGIISQRLAGKIRFLDARPDEQLRGITMESSAISLYFRVLRKQEGSDEPLVSEHLVNLIDSPGHIDFSSEVSAASRLCDGAVVLVDVVEGVCSQTVTVLRQCWTEKLKPILVLNKIDRLITELQLTPQEAYIHLSKVIEQVNSVIGSFFANERQLDDLFWREQLEKNENAEYIEKDDSGIYFNPTDNNVIFASAIDGWGFNIGQLAKFYEQKLGAKRENLQKVLWGDFYMDPKTKKIINNKGLKGRSLKPLFTSLILENIWKIYQNIITSRDSEMVEKIAKTLNIKLLARDLRSKDDKQLLRTIMGQWLPVSTAVLLTVIEKLPSPLESQTDRLNTILVSESDTAAMDPRLLKAMKTCDKEGPVSAYVSKMLSIPREELPVESKRIASSDELMERSRKAREEALNAAKHAGMVENMAMMDLNDNSKNTSDLYKRAKDTVMTPEVGEQTKPKPSRNNDVFCVVSEPSSALDLEFEYEGEDDSDSQDNFGLDFVPTDIDPNDPLSSMFEYEEEDPLLESIKQISEDVNDEVDDIFDEKEECLVAFARIYSGTLRVGQEISVLGPKYDPKCPEEHIETAIITHLYLFMGKELVPLDVCPSGNIVGIRGLAGKVLKSGTLIEKGVQGVNLAGVNFHFTPIVRVAVEPANPVEMSKLVRGLKLLDQADPCVHTYVENTGEHILCTAGELHLERCLKDLTERFAGIEITHSEPAIPYRETFLSASDMNPPQNSQLGRGVHELLLSQYKITFRTFPLSGKVTDFLSQHQNSIKNILKTSTSSMDPVIESTGSSFLDKKSLLVAFEEVINQEEKSRELLSGFKVKLAGFGPSRVGCNILLSQDNLLGSLFEGTPAAFEYSDSIKNGFQLAVSEGPLANEPVQGMCVLVESVHKMSQDEIESIEDPRYQQHIVDLSGRLITSTRDAIHEAFLDWSPRIMWAIYSCDIQTSVDVLGKVYAVILQRHGKIISEEMKEGTPFFQIEAHVPVVEAFGLSEDIRKRTSGAAQPQLVFSGFECIDLDPFWVPTTEEELEELGDTADRENIARKHMNAIRRRKGLFIEEKVVENAEKQRTLKKN", "notes": "recombinantly expressed in S. cerevisiae; isolated GTPase"}}, "key": {"[1]": {"system": "Tif6 bound to 60S subunits", "test": "Tif6 release assay with purified yeast components", "type": "biochemical, Saccharomyces cerevisiae", "conditions": "50 nM Efl1 variant, 50 nM Sdo1, 100 µM GTP, 30 °C, 10 min", "experimental": "The release of Tif6 (yeast orthologue of eIF6) was performed as previously described in [3, 15]. Reaction mixtures contained 10 nM 60S subunits, 40 nM Tif6, 50 nM Efl1 variant, 50 nM Sdo1, and 100 µM GTP in buffer of 10 mM Tris-HCl at pH 7.4, 75 mM KCl, and 1.5 mM MgCl2 supplemented with RNAse inhibitors (Promega, Madison, WI, USA) and protease inhibitors free of EDTA (GoldBio, St. Louis, MO, USA). GTP was omitted in the negative control, and 50 mM EDTA was added as the positive control to disassemble the 60S ribosomal subunits. Reaction mixtures of 100 µL were incubated at 30 °C for 10 min and added on top of 150 µL of a 30% sucrose cushion prepared in the same buffer. Samples were centrifuged at 476,000× g for 30 min in an Optima tabletop MX ultracentrifuge with a TLA-100 rotor. The top 200 µL (free fraction) was recovered, and the remaining 50 µL was resuspended in 150 µL of the same buffer. Samples were precipitated with 30% trichloroacetic acid, electrophoresed in 10% Tris-glycine SDS-PAGE, transferred to a PVDF membrane, and immunoblotted with antibodies anti-eIF6 (PA531066; Thermo Scientific; dilution 1:3000) and anti-uL3 (OAAB09713; Aviva Systems Biology, San Diego, CA, USA; dilution 1:500) overnight at 4 °C. […] Signals were quantified using programme Image J version 1.8.0. […]"}, "[2]": {"set-up": "method as in PMID 25991726, PMID 30780079, PMID 23831625", "conditions": "wild-type Efl1; cited from earlier work"}, "[3]": {"test": "Enzyme kinetics of GTP hydrolysis (PNP coupled assay, Michaelis–Menten)", "type": "biochemical, Saccharomyces cerevisiae", "conditions": "isolated enzyme", "experimental": "(§1) Finally, we measured the enzyme kinetics of mutant Efl1 R1086Q as an isolated enzyme and bound to Sdo1 using an enzymatic coupled assay with a purine nucleoside phosphorylase (PNP) enzyme. This analysis was extended to another disease mutation (EFL1 M882K) also located in domain IV of the GTPase using the equivalent yeast variant, Efl1 L910K [17]. The Km and kcat kinetic parameters were calculated using non-linear regression assuming a Michaelis–Menten model (Supplementary Table S1). […] The catalytic constant for mutant R1086Q and the wild-type enzyme consisted of 0.67 min^−1, and it was 0.58 min^−1 for mutant Efl1 L910K. […] In line with the proposed role of Sdo1 as a guanine exchange factor of Efl1, previous results have shown that the interaction of wild-type Efl1 with Sdo1 impacted its Km for GTP, decreasing its value 2–3-fold. The Km values for the complexes formed between Sdo1 and Efl1 mutants decreased by half with respect to their cognate-free counterpart and differed from each other. […] The measured Km value comprises all the microscopic rate constants of the individual reactions occurring in the enzyme, which include the binding to the substrate and product and the corresponding conformational changes.\nHydrolysis of GTP was measured using the Enzchek Phosphate Assay kit (Molecular Probes) as described by Webb. Standard reactions consisted of 100 µL containing 6 µM of Efl1 R1086Q and Efl1 L910K, 0.3 mM MESG, 1.0 U purine nucleoside phosphorylase (PNP) and the indicated amounts of GTP. Measurements done in the presence of effector protein contained 25 µM of Sdo1.\nThe reaction buffer consisted of 50 mM HEPES -KOH pH 7.5, 150 mM NaCl, 5 mM MgCl2.\n(§2) Reactions were initiated and the GTPase was added after 3 min. Time courses were followed by recording the change in absorbance at 360 nm in a Cary 60 UV -Vis spectrophotometer (Agilent Technologies). Background absorbance was recorded prior to the addition of the GTPase and subtracted from the sample signals. The slope of the measured time courses corresponded to the GTP hydrolysis rate. The concentration of releas ed phosphate was estimated using a molar absorption coefficient at 360 nm of 14,386 M -1 cm-1 previously described in [2]. Data were analysed by nonlinear regression to the M ichaelis-Menten equation with the program Origin Version 5.0 (OriginLab, Co., Northampton, MA). […]\nM HEPES-KOH pH 7.4, 2.5 mM magnesium acetate, 50 mM sucrose, 2 mM DTT, 0.1 mM PMSF, 0.1 mM benzamidine, 8 mM putrescine, 1 mM spermidine. […]\nDilution at the end of each titration was no longer than 2.5% of the initial volume. Data were corrected for the background signal by subtracting the fluorescence of the same ligand concentration without the GTPase in the reaction mixture.\n(§3) Maximum emission at 440 nm was replotted as a function of nucleotide concentration and analysed"}, "[4]": {"substrate": "Nc1nc2c(ncn2[C@@H]2O[C@H](COP(=O)(O)OP(=O)(O)OP(=O)(O)O)[C@@H](O)[C@H]2O)c(=O)[nH]1", "test": "GTP hydrolysis by PNP-coupled Enzchek phosphate assay (MESG, 360 nm), pH 7.5, 5 mM MgCl2, 6 µM Efl1 alone, Michaelis-Menten fit.", "type": "biochemical", "conditions": "25.0 °C", "experimental": "as §1\nHydrolysis of GTP was measured using the Enzchek Phosphate Assay kit (Molecular Probes) as described by Webb. […]\nas §2, with “The concentration of releas ed phosphate was estimated using a molar absorption coefficient at 360 nm of 14,386 M -1 cm-1 previously described in [2].” left out\nas §3"}}, "data": [{"molecule": "B1", "values": [{"measurement": "release of Tif6 from the 60S subunit (distribution of Tif6 in free and bound fraction, immunoblot)", "setting": "[1]", "value": "Tif6 was enriched in the free fraction"}, {"measurement": "fold decrease of Km for GTP upon interaction with Sdo1", "setting": "[2]", "value": "2–3 fold"}, {"measurement": "kcat", "setting": "[3]", "value": 0.0112, "unit": "s⁻¹"}, {"measurement": "Km", "setting": "[4]", "value": 155, "unit": "µM"}]}]}
